Measurements from patent publication US20150315296A1 (Hoffmann-La Roche, published 2015).

What was measured:
human VEGFA-121-His = target: T1, human VEGFA-121-His (human, UniProt P15692-9 27-147); test: SPR (Biacore T200), VEGFA-121-His amine-coupled on C1 chip, antibody in solution, 25 C, 1:1 Langmuir
T1 construct: also called VEFGA-121-His; not shown: His tag
T1 sequence (looked up): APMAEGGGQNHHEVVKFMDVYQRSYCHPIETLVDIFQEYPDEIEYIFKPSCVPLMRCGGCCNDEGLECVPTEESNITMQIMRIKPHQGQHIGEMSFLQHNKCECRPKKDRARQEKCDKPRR
Procedure: (§1) Binding of indicated antibodies to human VEGFA-121 was investigated by surface plasmon resonance using a BIACORE® T200 instrument (GE Healthcare). Aim for 50 RU of VEFGA-121-His were coupled on a Series S C1 chip (GE Healthcare BR-1005-35) at pH 5.0 by using an amine coupling kit supplied by the GE Healthcare. HBS-N(10 mM HEPES, 150 mM NaCl pH 7.4, GE Healthcare) was used as running buffer during the immobilization procedure. For the following kinetic characterization, sample and running buffer was PBS-T (10 mM phosphate buffered saline including 0.05% Tween20) at pH 7.4. The flow cell was set to 25° C.—and the sample block set to 12° C.—and primed with running buffer twice prior to kinetic characterization.
The association was measured by injection the indicated antibody in various concentrations in solution for 180 sec at a flow of 30 μl/min starting with 100 nM in 1:3 serial dilutions. The dissociation phase was monitored for up to 300 sec and triggered by switching from the sample solution to running buffer. The surface was regenerated by 30 sec washing with a 0.85% H₃PO₄ (phosphoric acid) solution at a flow rate of 30 μl/min Bulk refractive index differences were corrected by subtracting the response obtained from a anti His antibody surface. Blank injections are also subtracted (=double referencing). For calculation of KD and other kinetic parameters the Langmuir 1:1 model was used.

human Ang-2-RBD-Fc = target: T2, human Ang-2-RBD-Fc (human, UniProt O15123 275-496, limits assumed); test: SPR (Biacore T200), antibody captured by anti-human F(ab')2, Ang2-RBD-Fc in solution, 25 C, apparent KD, 1:1 Langmuir
T2 construct: domain: RBD; not shown: Fc part
T2 sequence (looked up): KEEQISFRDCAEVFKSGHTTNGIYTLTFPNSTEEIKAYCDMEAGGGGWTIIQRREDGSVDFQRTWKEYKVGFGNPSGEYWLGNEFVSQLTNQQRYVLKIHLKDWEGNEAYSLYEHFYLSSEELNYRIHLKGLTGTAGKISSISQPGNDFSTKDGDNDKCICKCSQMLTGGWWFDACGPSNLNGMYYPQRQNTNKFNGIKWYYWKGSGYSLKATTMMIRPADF
Procedure: as §1, with “Ang-2-RBD-Fc” for “VEGFA-121”, “Around 8000 (RU)” for “Aim for 50 RU”, “goat anti human F(ab′)₂ (10 μg/ml anti human F(ab)′₂; Order Code: 28958325; GE Healthcare Bio-Sciences AB, Sweden)” for “VEFGA-121-His”, “CM5” for “C1”, “BR-1005-30)” for “BR-1005-35)”
The bispecific antibody was captured by injecting a 5 nM solution for 25 sec at a flow of 5 μl/min. The association was measured by injection of human Ang2-RBD-Fc in various concentrations in solution for 120 sec at a flow of 30 μl/min starting with 100 nM in 1:3 serial dilutions. The dissociation phase was monitored for up to 180 sec and triggered by switching from the sample solution to running buffer. The surface was regenerated by 60 sec washing with a Glycine pH 2.1 solution at a flow rate of 30 μl/min Bulk refractive index differences were corrected by subtracting the response obtained from a goat anti human F(ab′)₂ surface. Blank injections are also subtracted (=double referencing). For calculation of apparent KD and other kinetic parameters the Langmuir 1:1 model was used.

B1: xFab-Fab<ANG2-VEGF>-uncharged (Ang2VEGF-0452) (bispecific antibody)
light 1: QPGLTQPPSVSVAPGQTARITCGGNNIGSKSVHWYQQKPGQAPVLVVYDDSDRPSGIPERFSGSNSGNTATLTISRVEAGDEADYYCQVWDSSSDHYVFGTGTKVTVLRTVAAPSVFIFPPSDEQLKSGTASVVCLLNNFYPREAKVQWKVDNALQSGNSQESVTEQDSKDSTYSLSSTLTLSKADYEKHKVYACEVTHQGLSSPVTKSFNRGEC
heavy: not shown
light 2: EVQLVESGGGLVQPGGSLRLSCAASGYTFTNYGMNWVRQAPGKGLEWVGWINTYTGEPTYAADFKRRFTFSLDTSKSTAYLQMNSLRAEDTAVYYCAKYPHYYGSSHWYFDVWGQGTLVTVSSASVAAPSVFIFPPSDEQLKSGTASVVCLLNNFYPREAKVQWKVDNALQSGNSQESVTEQDSKDSTYSLSSTLTLSKADYEKHKVYACEVTHQGLSSPVTKSFNRGEC
notes: Bivalent, Fc-free CrossFab(VH-VL)-Fab format
For B1, the Kd (human VEGFA-121-His) was 0.35 nM and the Kd (human Ang-2-RBD-Fc) was 3 nM.

B2: xFab2-Fab<ANG2-VEGF>-uncharged (Ang2VEGF-0453) (bispecific antibody)
light 1: QPGLTQPPSVSVAPGQTARITCGGNNIGSKSVHWYQQKPGQAPVLVVYDDSDRPSGIPERFSGSNSGNTATLTISRVEAGDEADYYCQVWDSSSDHYVFGTGTKVTVLRTVAAPSVFIFPPSDEQLKSGTASVVCLLNNFYPREAKVQWKVDNALQSGNSQESVTEQDSKDSTYSLSSTLTLSKADYEKHKVYACEVTHQGLSSPVTKSFNRGEC
heavy: not shown
light 2: EVQLVESGGGLVQPGGSLRLSCAASGYTFTNYGMNWVRQAPGKGLEWVGWINTYTGEPTYAADFKRRFTFSLDTSKSTAYLQMNSLRAEDTAVYYCAKYPHYYGSSHWYFDVWGQGTLVTVSSASVAAPSVFIFPPSDEQLKSGTASVVCLLNNFYPREAKVQWKVDNALQSGNSQESVTEQDSKDSTYSLSSTLTLSKADYEKHKVYACEVTHQGLSSPVTKSFNRGEC
notes: Trivalent, Fc-free (CrossFab VH-VL)2-Fab format
B2 was tested, and the Kd (human VEGFA-121-His) was 0.22 nM and the Kd (human Ang-2-RBD-Fc) was 5 nM.

B3: xFab2-Fab<ANG2-VEGF>-charged (Ang2VEGF-0448) (bispecific antibody)
light 1: QPGLTQPPSVSVAPGQTARITCGGNNIGSKSVHWYQQKPGQAPVLVVYDDSDRPSGIPERFSGSNSGNTATLTISRVEAGDEADYYCQVWDSSSDHYVFGTGTKVTVLRTVAAPSVFIFPPSDKRLKSGTASVVCLLNNFYPREAKVQWKVDNALQSGNSQESVTEQDSKDSTYSLSSTLTLSKADYEKHKVYACEVTHQGLSSPVTKSFNRGEC
heavy: not shown
light 2: EVQLVESGGGLVQPGGSLRLSCAASGYTFTNYGMNWVRQAPGKGLEWVGWINTYTGEPTYAADFKRRFTFSLDTSKSTAYLQMNSLRAEDTAVYYCAKYPHYYGSSHWYFDVWGQGTLVTVSSASVAAPSVFIFPPSDEQLKSGTASVVCLLNNFYPREAKVQWKVDNALQSGNSQESVTEQDSKDSTYSLSSTLTLSKADYEKHKVYACEVTHQGLSSPVTKSFNRGEC
notes: as for B2
B3 gave a Kd (human VEGFA-121-His) of 0.18 nM and a Kd (human Ang-2-RBD-Fc) of 4 nM.

B4: xFab-Fab<ANG2-VEGF>-charged (Ang2VEGF-0447) (bispecific antibody)
light 1: QPGLTQPPSVSVAPGQTARITCGGNNIGSKSVHWYQQKPGQAPVLVVYDDSDRPSGIPERFSGSNSGNTATLTISRVEAGDEADYYCQVWDSSSDHYVFGTGTKVTVLRTVAAPSVFIFPPSDKRLKSGTASVVCLLNNFYPREAKVQWKVDNALQSGNSQESVTEQDSKDSTYSLSSTLTLSKADYEKHKVYACEVTHQGLSSPVTKSFNRGEC
heavy: not shown
light 2: EVQLVESGGGLVQPGGSLRLSCAASGYTFTNYGMNWVRQAPGKGLEWVGWINTYTGEPTYAADFKRRFTFSLDTSKSTAYLQMNSLRAEDTAVYYCAKYPHYYGSSHWYFDVWGQGTLVTVSSASVAAPSVFIFPPSDEQLKSGTASVVCLLNNFYPREAKVQWKVDNALQSGNSQESVTEQDSKDSTYSLSSTLTLSKADYEKHKVYACEVTHQGLSSPVTKSFNRGEC
notes: as for B1
In the case of B4, the Kd (human VEGFA-121-His) is reported as 0.36 nM and the Kd (human Ang-2-RBD-Fc) is reported as 3 nM.
